B1: Sso-PfMCM chimera (Sulfolobus solfataricus MCM N-terminal domain fused to Pyrococcus furiosus MCM AAA+ ATPase domain) (enzyme, UniProt Q9UXG1 1-269, looked up)
chain: MEIPSKQIDYRDVFIEFLTTFKGNNNQNKYIERINELVAYRKKSLIIEFSDVLSFNENLAYEIINNTKIILPILEGALYDHILQLDPTYQRDIEKVHVRIVGIPRVIELRKIRSTDIGKLITIDGILVKVTPVKERIYKATYKHIHPDCMQEFEWPEDEEMPEVLEMPTICPKCGKPGQFRLIPEKTKLIDWQKAVIQERPEEVPSGQLPRQLEIILEDDLVDSARPGDRVKVTGILDIKQDSPVKRGSRAVFDIYMKVSSIEVSQKVLQELEISPEEEQIIKELAKRKDIVDAIVDSIAPAIYGYKEVKKGIALALFGGVSRKLPDGTRLRGDIHVLLVGDPGVAKSQILRYVANLAPRAIYTSGKSSSAAGLTAAAVRDEFTGGWVLEAGALVLADGGYALIDELDKMSDRDRSVIHEALEQQTISISKAGITATLNARTTVIAAANPKQGRFNRMKNPFEQIDLPPTLLSRFDLIFVLIDEPDDKIDSEVARHILRVRRGESEVVAPKIPHEILRKYIAYARKNIHPVISEEAMEEIEKYYVRMRKSVKKTKGEEEGIPPIPITARQLEALIRLSEAHARMRLSPIVTREDAREAIKLMEYTLKQIAMD
notes: SsoMCM N-terminal domain (SsoMCMN), Sulfolobus solfataricus MCM, aa 1-269; amplified from S. solfataricus genomic DNA (ATCC); PfMCM AAA+ domain (PfMCMAAA), Pyrococcus furiosus MCM, aa 257-361/729-966 = aa 257-966 with its intein (aa 362-728) genetically removed; lacks the C-terminal helix-turn-helix domain (aa 967-1049); numbers are database (intein-containing) numbers; Crystallised with Mg/ADP; …
B2: Pyrococcus furiosus MCM AAA+ ATPase domain, crystallized construct (aa 263-361/729-966) (domain or fragment, UniProt Q8U3I4 263-966, looked up)
chain: PEEEQIIKELAKRKDIVDAIVDSIAPAIYGYKEVKKGIALALFGGVSRKLPDGTRLRGDIHVLLVGDPGVAKSQILRYVANLAPRAIYTSGKSSSAAGLTAAAVRDEFTGGWVLEAGALVLADGGYALIDELDKMSDRDRSVIHEALEQQTISISKAGITATLNARTTVIAAANPKQGRFNRMKNPFEQIDLPPTLLSRFDLIFVLIDEPDDKIDSEVARHILRVRRGESEVVAPKIPHEILRKYIAYARKNIHPVISEEAMEEIEKYYVRMRKSVKKTKGEEEGIPPIPITARQLEALIRLSEAHARMRLSPIVTREDAREAIKLMEYTLKQIAMD
notes: PfMCM AAA+ domain, Pyrococcus furiosus MCM, aa 263-361/729-966 (intein aa 362-728 genetically removed); amplified from P. furiosus genomic DNA (ATCC); numbers are database (intein-containing) numbers; A different construct (aa 252-361/729-1049) was used for the unwinding experiments and is not this molecule; also called PfMCMAAA; PfMCM-AAA; not shown: His6, N-terminal, cleaved; SUMO, N-terminal, …

Columns and labels:
[1] = molecular target: the molecule itself; assay: crystal structure; Sso-PfMCM with Mg/ADP, hanging drop, 100 mM HEPES pH 7.6, 350 mM MgCl2, 3% PEG 3350; space group P6_(3), hexamer on a crystallographic threefold axis; 2.70 Å
[2] = molecular target: the molecule itself; assay: crystal structure; PfMCMAAA with Mg/ADP, hanging drop, 50 mM sodium cacodylate pH 6.0, 50 mM magnesium acetate, 30% MPD, 5% glycerol; space group P1, 16 monomers in the asymmetric unit; 3.80 Å

Protein	stoichiometry N [1]	stoichiometry N [2]
B1	6	
B2		16
